Measurements as given in patent US20180207202A1, “METHODS FOR MOBILIZING HEMATOPOIETIC STEM CELLS” (Ohio State Innovation Foundation, priority 2013, published 2018).
Where two headings read alike, the source gives them in different places.

B1: FLT3L: recombinant human FLT3L (Celldex Therapeutics or Miltenyi Biotec), stem cell-specific growth factor (protein, UniProt P49771 27-235, looked up)
Fms-related tyrosine kinase 3 …: TQDCSFQHSPISSDFAVKIRELSDYLLQDYPVTVASNLQDEELCGGLWRLVLAQRWMERLKTVAGSKMQGLLERVNTEIHFVTKCAFQPPPSCLRFVQTNISRLLQETSEQLVALKPWITRQNFSRCLELQCQPDSSTLPPPWSPRPLEATAPTAPQPPLLLLLLLPVGLLLLAAAWCLHWQRTRRRTPRPGEQVPPVPSPQDLLLVEH
B2: G-CSF: Granulocyte colony stimulating factor (Amgen), routinely used to mobilize PBSC (protein, UniProt P09919 31-207, looked up)
Granulocyte …: TPLGPASSLPQSFLLKCLEQVRKIQGDGAALQEKLVSECATYKLCHPEELVLLGHSLGIPWAPLSSCPSQALQLAGCLSQLHSGLFLYQGLLQALEGISPELGPTLDTLQLDVADFATTIWQQMEELGMAPALQPTQGAMPAFASAFQRRAGGVLVASHLQSFLEVSYRVLRHLAQP

Legend:
CD8+ T cells = CD8+ T cells in mobilized peripheral blood, flow cytometry (Example 3); format: in vivo, mice (WT B6D2F1/J); conditions: group of three mice
Method: It is known that donor CD8^+ T cells are mainly responsible for GVHD in HSCT, and G-CSF is considered a toxic mobilizer as it also induces GVHD.
In FIG. 3, WT B6D2F1/J mice were treated with FLT3L or G-CSF for 10 or 5 days, respectively, followed by a one-hour Plerixafor treatment. PBS served as a control. Peripheral blood cells were assayed by flow cytometry to examine percentages of CD8^+ T cells ([…]) in total white blood cells. Data were summarized from a group of three mice.

[1] = test system: HSCs (Lin-Sca-1+c-Kit+, LSK cells); assay: LSK cell mobilization into peripheral blood, flow cytometry (Example 6); format: in vivo, C57BL/6 mice
Method: (§1) C57BL/6 mice were injected intraperitoneally (i.p.) either (i) with recombinant human FLT3L (Celldex Therapeutics or Miltenyi Biotec) ([…]) for 10 consecutive days or (ii) with G-CSF (Amgen) ([…]) for 5 consecutive days. The capacity of human FLT3L to bind murine FLT3L receptors and Plerixafor to block murine Cxcr4 receptor was previously reported. (See, e.g., Lyman et al., 1994; Brawel et al., 1996; Gerlach et al., 2001; Broxmeyer et al., 2005). Twelve hours after the last dose of either FLT3L or G-CSF, the mice were injected i.p. with either PBS or Plerixafor (AMD3100, Sigma) (5 mg/kg). The mice were euthanized one hour later.
As described by Ferraro et al., 2011, peripheral blood was collected retro-orbitally while the mice were under deep anesthesia. Briefly, the mice were […] by an i.p. injection with 100 μL of a mixture of ketamine (54.3 mg/mL) and xylazine (9.1 mg/mL). Blood was collected from the retro-orbital venous plexus through a microcapillary heparinized tube. The mice were then euthanized while still deeply anesthetized. RBCs were depleted by RBC lysis buffer. The remaining cells were subjected to flow cytometric analysis or transplantation.
The mAbs reactive with murine cell antigens were purchased from BD Biosciences or eBioscience. Cell preparation and analysis were performed as described by Yu et al., 2010. […]

[2] = test system: fully mismatched acute GVHD model; assay: Survival in fully mismatched acute GVHD model given mobilized peripheral blood cells (Example 5); format: in vivo, mice (C57BL/6 to BALB/c); conditions: 0.8 million mobilized cells per mouse
NK cells (NK1.1+CD3-) = assay: NK cell expansion in peripheral blood and spleen, flow cytometry (Example 2); format: in vivo, mice (WT C57BL/6 or B6D2F1/J)
Source text: […] PBS; gated on total white blood cells).
In FIG. […] PBS served as a control. Peripheral blood cells were counted using trypan blue and assayed by flow cytometry to examine percentages of NK cells (NK1.1^+CD3^−).

[3] = test system: NK cells, Tregs, DCs, monocytes, neutrophils; assay: Immune cell subsets in mobilized peripheral blood, flow cytometry (Example 6); format: in vivo, C57BL/6 mice
Method: as §1
The mAbs reactive with murine cell antigens were purchased from BD Biosciences or eBioscience. Cell preparation and analysis were performed as described by Yu et al., 2010. The immune subsets were gated as CD3^−NK1.1^+ for natural killer (NK) cells, CD3^+CD25^+Foxp3^+ for regulatory T cells (Tregs), B220^−CD11c^+CD11b^− for conventional dendritic cells (cDCs), and CD11b^−CD11c^lowPDCA1^+SiglecH^+ for plasmacytoid DCs (pDCs).
In FIG. 12, the constitution of immune cell subsets in mobilized peripheral blood was determined by flow cytometric analysis with corresponding antibodies (B cell: CD3^−CD19^+, T cell: CD3^+NK1.1^−; NK cell: CD3^−NK1.1^+; Neutrophil: Gr1^highCD11b^+; Monocyte: Gr1^medCD11b^+; DC: CD11c^+). […]

[4] = test system: lethally irradiated C57BL/6 mice; assay: Syngeneic transplantation of mobilized grafts into lethally irradiated mice (Example 6); format: in vivo; conditions: 2×10^5 mobilized cells per recipient
Method: For syngeneic transplantation, C57BL/6 mice were subjected to 9 Gy of irradiation delivered in 2 fractions separated by 4 hours using RS 2000 X-Ray Q2 Irradiator (Rad Source Technologies, Suwanee GP). Four hours later, each mouse was transplanted via the tail vein with 2×10^5 mobilized RBC-depleted peripheral blood cells from C57BL/6 mice. […] The lethally irradiated mice were housed in a sterile environment and baytril antibiotic was provided in the drinking water to prevent infection-caused mortality. After transplantation, mice were monitored daily and the phenotypes of the mice were recorded.
(§2) Irradiated mice without any cell infusion (IR Ctl) served as a control group. A total of 2×10^5 (A) or 8×10^5 (B) peripheral blood cells were transplanted for each recipient. Each group contains 5 to 8 mice. A log-rank test was used to compare survival curves.

[5] = test system: lethally irradiated syngeneic mouse model; assay: Survival of lethally irradiated syngeneic mice given mobilized peripheral blood cells (Example 5); format: in vivo, mice (C57BL/6); conditions: 0.2 million mobilized PB cells per lethally irradiated recipient
Method: Peripheral blood (PB) mobilized by FLT3L and Plerixafor prolongs mouse survival in a lethally irradiated syngeneic mouse model and a fully mismatched acute GVHD model. To test whether the mobilized stem cells and other immune cells can improve transplantation, mobilized cells were administered to lethally irradiated (IR) syngeneic mice at the dose of 0.2 million PB cells for each recipient mouse.

[6] = test system: Lin-c-kit+Sca-1+ HSCs and Lin-c-kit+Sca-1- progenitor cells; assay: Mobilization of HSCs and committed progenitors into peripheral blood, flow cytometry (Example 1); format: in vivo, mice (WT B6D2F1/J)
Source text: Since HSCs are important for long-term reconstitution and progenitor cells are critical for short-term rapid reconstitution in transplantation, whether a combination of FLT3L and Plerixafor can mobilize both types of cells was investigated. In mice, Lin^−c-kit^+Sca-1^+ cells are enriched HSCs and Lin^−c-kit^+Sca-1^− cells are more committed progenitor cells. […] Furthermore, the mobilization effect of the FLT3L and Plerixafor combination was much stronger than the G-CSF and Plerixafor combination, the strongest mobilizer currently used clinically (5.9% vs. 2%, 10.3% vs. 1%, n=3, p<0.01, respectively). The flow results were validated by another method, stem cell colony formation assay.
In FIG. 1, WT B6D2F1/J mice were treated with FLT3L or G-CSF for 10 or 5 days, respectively, followed by a one-hour Plerixafor treatment. PBS served as a control. On the last day of the treatment, mice were sacrificed and peripheral blood cells were subjected to flow cytometry to determine percentages (among total WBC) of stem-cell enriched (Lin^−CD117^+Sca-1^+) (FIG. 1A) or more committed precursor cells ([…]) (FIG. 1B).

[7] = test system: lethally irradiated BALB/c mice; assay: Allogeneic transplantation of mobilized grafts into lethally irradiated mice (Example 6); format: in vivo, BALB/c mice (grafts from C57BL/6); conditions: 8×10^5 mobilized cells per recipient
Method: For allogeneic transplantation, each recipient BALB/c mouse was subjected to a lethal irradiation (delivered in 2 fractions separated by 4 hours using RS 2000 X-Ray Q2 Irradiator) and was then injected with 8×10^5 mobilized RBC depleted peripheral blood cells isolated from C57BL/6 mice. […] Considering the likely graft rejection and GVHD complication in the allogeneic model, a 4-fold higher number of cells (i.e., 8×10^5 donor cells isolated from C57BL/6 mice) were administered intravenously (i.v.) into each BALB/c recipient for allogeneic transplants. The lethally irradiated mice were housed in a sterile environment and baytril antibiotic was provided in the drinking water to prevent infection-caused mortality. After transplantation, mice were monitored daily and the phenotypes of the mice were recorded.
as §2
In FIG. 16, lethally irradiated BALB/c mice were transplanted with grafts from C57BL/6 mice that were mobilized by the indicated regimens. At four months post-transplantation, the surviving mice were sacrificed.

[8] = test system: mice syngeneically infused; conditions: cited from earlier work
[9] = test system: peripheral blood stem cells; conditions: cited from earlier work

Molecule | proportion of CD8+ T cells in total white blood cells (CD8+ T cells) | number of LSK cells in blood compared with PBS-treated mice [1] | survival rate two months (day 60) after transplantation [2] | NK cells in peripheral blood and spleen (NK cells (NK1.1+CD3-); FLT3L alone for 14 days) | NK cell content compared with the combination of GCSF and Plerixafor (NK cells (NK1.1+CD3-); gated on total white blood cells) | NK (CD3-NK1.1+) cell percentages [3] | mice alive four months after transplantation [4] | survival rate at day 21 [4] | protection from death [5] | effect on progenitor cells and HSCs ([6]; FLT3L administration for 5 days) | Lin-c-kit+Sca-1+ HSC, percentage among total WBC ([6]; peripheral blood, FLT3L administration of 7 days and 10 days, printed as 0.13% vs. 1.8%, n=3, p<0.01) | Lin-c-kit+Sca-1- progenitor cells, percentage among total WBC ([6]; peripheral blood, FLT3L administration of 7 days and 10 days, printed as 0.47% vs. 1.8%, n=3, p<0.01) | mice surviving to 4 months post-transplantation [7] | mice survived ([8]; 2.5×10^5 cells mobilized by G-CSF transplanted) | mice survived ([8]; syngeneically infused with 1×10^6 peripheral nucleated cells mobilized by G-CSF) | autologous transplant patients that respond poorly ([9]; G-CSF or G-CSF plus chemotherapy, varied depending on disease types and age) | normal donors that mobilize stem cells poorly ([9]; in response to G-CSF)
c1cc(CN2CCCNCCNCCCNCC2)ccc1CN1CCCNCCNCCCNCC1 [Plerixafor, reference compound] | moderately gave rise to a proportional increase | moderate increase | – | – | – | – | – | – | – | – | – | – | – | – | – | – | –
B1 | dramatically decreased | significantly more LSK cells | 60% | dramatically increased | much higher NK cell content | significantly increased | approximately 70% | 100% | fully protect mice from death | increased only Lin-c-kit+Sca-1-progenitor cells but not HSCs | 1.8% | 1.8% | 66% | – | – | – | –
B2 | – | – | – | – | – | – | – | – | – | – | – | – | – | around 17% | about 90% | 10-30% | 5-10%
